Laboratory results: PMC9723610
Read-outs that look alike come from different tables or passages of the source.

Assays:
hG3BP1 [1] = molecular target: T1, hG3BP1 (human, UniProt Q13283 1-466); test: EMSA
hG3BP1 [2] = molecular target: T1, hG3BP1; test: EMSA; remark: listed apart in the source

T1 sequence (Q13283 whole entry): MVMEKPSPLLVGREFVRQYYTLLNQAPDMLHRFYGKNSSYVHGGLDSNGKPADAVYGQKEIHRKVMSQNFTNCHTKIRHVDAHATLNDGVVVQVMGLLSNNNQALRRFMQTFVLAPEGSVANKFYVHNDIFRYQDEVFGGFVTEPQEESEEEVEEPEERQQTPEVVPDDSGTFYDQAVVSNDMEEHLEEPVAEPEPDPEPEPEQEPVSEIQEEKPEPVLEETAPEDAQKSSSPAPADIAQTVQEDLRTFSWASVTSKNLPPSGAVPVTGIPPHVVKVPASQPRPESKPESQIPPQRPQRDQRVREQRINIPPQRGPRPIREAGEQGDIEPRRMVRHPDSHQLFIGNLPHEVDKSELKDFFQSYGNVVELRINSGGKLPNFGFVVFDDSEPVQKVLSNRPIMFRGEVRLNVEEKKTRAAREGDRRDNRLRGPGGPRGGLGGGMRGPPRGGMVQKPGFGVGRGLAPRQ

Binder	binding result (hG3BP1 [1])	binding result (hG3BP1 [2])
AGGAGGAGGAGGAGG (structured_RNA) [r(AGG)5 rG4]	binds	–
AGGGGGCCGUGGGGUGGGAGCUGGGG (structured_RNA) [BCL2 rG4 (rBCL2)]	–	binds
GUGUGGGAGGGGCGGGUCUGGGUGCG (structured_RNA) [NRAS rG4 (rNRAS)]	–	binds
GGGUUAGGGUUAGGGUUAGGG (structured_RNA) [rOG0 rG4]	–	binds
